± gives the standard deviation of the averaged measurements.
test system: ATP; experiment: switch fluorescence ratio, 500 uM ATP over buffer (Cy3 cluster intensity, sum of 5 cycles each) (fold (ratio)); higher = stronger signal-on switching upon ATP binding; sequences stand for … in TCGTCGGCAGCGTCAGATGTGTATAAGAGACAGTTTTTTTTTTTTTTTTTTTTTTTTT…TC; conditions: aptamer strand: ATP DNA aptamer (quencher-CACCTGGGGGAGTATTGCGGAGGAAGG + anchor), 100 nM annealed; ATP concentration: 500 uM
Method in brief: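 Five buffer/ATP imaging cycles were run on Cy3-labelled switching-strand clusters on a modified Illumina MiSeq flow-cell, with NaOH stripping and re-annealing between cycles. In each cycle, clusters annealed to 100 nM quencher-labelled ATP aptamer were imaged in selection buffer, then after 15 min with 500 uM ATP at 22 °C. Per cluster, the fluorescence ratio is summed target-cycle over summed buffer-cycle Cy3 intensity, averaged per switch-domain sequence. Only clusters within 100-1000 RFU were kept.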
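Note: ATP exposure 15 min at 22 °C before imaging.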

Row | Sequence | switch fluorescence ratio
1 | TAAGGGGGTC | 0.981 ± 0.012
2 | TAAGGGTCAG | 0.9953 ± 0.0012
3 | TAAGGGTCCC | 0.965 ± 0.016
4 | TAAGGGTGA | 1.03 ± 0.015
5 | TAAGGGTTAT | 0.978 ± 0.023
6 | TAAGGGTTTA | 1.06 ± 0.1
7 | TAAGGTACAT | 1.09 ± 0.012
8 | TAAGGTAGGG | 1.01 ± 0.013
9 | TAAGGTGTTG | 1.04 ± 0.024
10 | TAAGGTTCAC | 1.003 ± 0.0083
11 | TAAGGTTTGG | 0.9862 ± 0.0092
12 | TAAGTACCGG | 1.06 ± 0.038
13 | TAAGTACGGC | 1.31 ± 0.02
14 | TAAGTAGTTT | 1.02 ± 0.013
15 | TAAGTATAGT | 1.0211 ± 0.00015
16 | TAAGTCGGTC | 0.9827 ± 0.0011
17 | TAAGTCGTGG | 0.9735 ± 0.0019
18 | TAAGTGCGGA | 0.982 ± 0.011
19 | TAAGTGGGGG | 0.979 ± 0.03
20 | TAAGTGTTAG | 1.013 ± 0.0074
21 | TAAGTTACAA | 1.09 ± 0.019
22 | TAAGTTAGTA | 0.9786 ± 0.0091
23 | TAAGTTCTAA | 0.979 ± 0.018
24 | TAAGTTGGCT | 0.958 ± 0.023
25 | TAAGTTTCCT | 1.07 ± 0.03

Row | Sequence | switch fluorescence ratio
26 | TAAGTTTGCA | 1.003 ± 0.0077
27 | TAAGTTTTAT | 0.984 ± 0.021
28 | TAAGTTTTGC | 0.979 ± 0.038
29 | TAAGTTTTTT | 0.99 ± 0.02
30 | TAATAAAATG | 0.99 ± 0.015
31 | TAATAATCAA | 1.02 ± 0.051
32 | TAATACGTTG | 1.03 ± 0.012
33 | TAATAGAAAA | 1.011 ± 0.006
34 | TAATAGACGG | 1 ± 0.026
35 | TAATAGTAAT | 1.02 ± 0.011
36 | TAATAGTTTG | 1.028 ± 0.0095
37 | TAATATCATT | 1 ± 0.019
38 | TAATATGATT | 0.999 ± 0.029
39 | TAATATTCAA | 1.03 ± 0.014
40 | TAATATTCGA | 0.995 ± 0.018
41 | TAATATTGTT | 1.007 ± 0.0095
42 | TAATCAAAGT | 1.02 ± 0.018
43 | TAATCACCTA | 1.038 ± 0.0093
44 | TAATCCAGAA | 1.01 ± 0.082
45 | TAATCCATCG | 1.03 ± 0.049
46 | TAATCGGCTC | 1 ± 0.03
47 | TAATCGGCTG | 0.991 ± 0.069
48 | TAATCGGTG | 0.9805 ± 0.0024
49 | TAATCGTGGG | 1.02 ± 0.011
50 | TAATCTAATA | 0.987 ± 0.046

Row | Sequence | switch fluorescence ratio
51 | TAATCTCCGG | 1.04 ± 0.04
52 | TAATCTTGGG | 1 ± 0.011
53 | TAATGAATAG | 1.01 ± 0.042
54 | TAATGAATTC | 1.003 ± 0.0081
55 | TAATGAGAAC | 0.974 ± 0.014
56 | TAATGAGGTC | 0.99 ± 0.046
57 | TAATGAGTTT | 1.006 ± 0.0016
58 | TAATGATTGT | 0.982 ± 0.042
59 | TAATGCGATG | 0.9852 ± 0.005
60 | TAATGGATGT | 0.976 ± 0.027
61 | TAATGGGGGC | 0.994 ± 0.018
62 | TAATGGGGTT | 1 ± 0.024
63 | TAATGGGTTA | 1 ± 0.037
64 | TAATGGTGT | 1.02 ± 0.041
65 | TAATGTGCAA | 1.09 ± 0.013
66 | TAATGTGGGT | 0.967 ± 0.015
67 | TAATGTTTAT | 0.996 ± 0.026
68 | TAATTAGGGT | 1 ± 0.025
69 | TAATTATCTT | 0.979 ± 0.058
70 | TAATTATTCT | 1.02 ± 0.014
71 | TAATTCACCA | 1.18 ± 0.18
72 | TAATTCGACT | 1.02 ± 0.029
73 | TAATTCGGTT | 1 ± 0.021
74 | TAATTGAGAA | 0.986 ± 0.037
75 | TAATTGGAGT | 0.972 ± 0.014

Row | Sequence | switch fluorescence ratio
76 | TAATTGGGTC | 1.024 ± 0.0024
77 | TAATTGTAAG | 0.979 ± 0.017
78 | TAATTGTCTA | 1 ± 0.043
79 | TAATTTACCT | 1.275 ± 0.0075
80 | TAATTTGAGG | 0.955 ± 0.012
81 | TAATTTGTCA | 1.008 ± 0.0076
82 | TAATTTTAGC | 0.9913 ± 0.0086
83 | TAATTTTGGC | 0.99 ± 0.018
84 | TACAAAAAGG | 0.981 ± 0.023
85 | TACAAGCGTA | 0.992 ± 0.014
86 | TACAAGGACG | 1.03 ± 0.098
87 | TACAAGGGCA | 1.01 ± 0.037
88 | TACAAGTCAA | 1.02 ± 0.017
89 | TACAAGTTTG | 0.9965 ± 0.0053
90 | TACAATTGAA | 1 ± 0.025
91 | TACAATTTTT | 1.01 ± 0.028
92 | TACACAGCGG | 1.05 ± 0.045
93 | TACACGCGGG | 1.01 ± 0.048
94 | TACACTTTGC | 1.027 ± 0.0079
95 | TACAGAGGCA | 1.02 ± 0.031
96 | TACAGGCGCT | 0.994 ± 0.015
97 | TACAGGGACC | 1.022 ± 0.0034
98 | TACAGGGCTC | 1.05 ± 0.024
99 | TACAGGGGCC | 1 ± 0.022
100 | TACAGGTTGT | 1.21 ± 0.19

Row | Sequence | switch fluorescence ratio
101 | TACAGTAGCT | 1.09 ± 0.011
102 | TACAGTTTCG | 1.03 ± 0.05
103 | TACATAAAAC | 1.011 ± 0.0025
104 | TACATATTCG | 0.989 ± 0.041
105 | TACCAAACGG | 2.23 ± 1.4
106 | TACCACTTAA | 1.03 ± 0.035
107 | TACCACTTTG | 1.24 ± 0.29
108 | TACCCCAATT | 1.068 ± 0.0037
109 | TACCGACATA | 1.189 ± 0.0084
110 | TACCGCGGGG | 1.04 ± 0.043
111 | TACCGGGCTT | 0.978 ± 0.02
112 | TACCGGGGTC | 1 ± 0.042
113 | TACCGGGTCT | 1.032 ± 0.005
114 | TACCGGGTTT | 0.9914 ± 0.0059
115 | TACCGTGGGT | 0.99 ± 0.021
116 | TACCGTTGGG | 1.01 ± 0.038
117 | TACCTACTCG | 1.18 ± 0.12
118 | TACCTGGGTA | 0.948 ± 0.028
119 | TACCTGGTTT | 1 ± 0.03
120 | TACGAACTTT | 1.31 ± 0.06
121 | TACGAATTTT | 1.02 ± 0.012
122 | TACGAGTGCG | 1.04 ± 0.06
123 | TACGAGTTCT | 0.984 ± 0.013
124 | TACGATTTAA | 1.01 ± 0.026
125 | TACGCGGGCA | 1.07 ± 0.11

Row | Sequence | switch fluorescence ratio
126 | TACGCGTAAT | 1.012 ± 0.0052
127 | TACGCTGACG | 1.13 ± 0.087
128 | TACGCTTATA | 1.19 ± 0.042
129 | TACGCTTCAT | 1.02 ± 0.011
130 | TACGGAAATG | 1.0398 ± 0.00093
131 | TACGGAAGGT | 1.06 ± 0.034
132 | TACGGAGGGT | 1.22 ± 0.31
133 | TACGGATCGT | 0.974 ± 0.03
134 | TACGGCGTAC | 1.08 ± 0.051
135 | TACGGCTTTT | 1.01 ± 0.0062
136 | TACGGGAGCC | 1.01 ± 0.025
137 | TACGGGAGGC | 1.02 ± 0.032
138 | TACGGGCGGC | 1.05 ± 0.016
139 | TACGGGCGGG | 1.24 ± 0.17
140 | TACGGGCTTT | 1.03 ± 0.033
141 | TACGGGGACA | 1.07 ± 0.055
142 | TACGGGGAT | 1.84 ± 1.2
143 | TACGGGGCCA | 0.992 ± 0.01
144 | TACGGGGGAA | 1.26 ± 0.31
145 | TACGGGTCGA | 1.01 ± 0.016
146 | TACGGGTTAG | 1.031 ± 0.0034
147 | TACGGGTTCG | 0.99 ± 0.028
148 | TACGGTCAGC | 1.03 ± 0.016
149 | TACGGTGCAG | 0.981 ± 0.024
150 | TACGGTGGTG | 0.987 ± 0.018

Row | Sequence | switch fluorescence ratio
151 | TACGTACGCC | 1.57 ± 0.073
152 | TACGTATACT | 1.39 ± 0.015
153 | TACGTGTAGA | 1.02 ± 0.056
154 | TACGTTACTC | 1.56 ± 0.018
155 | TACGTTATTT | 1.16 ± 0.027
156 | TACGTTGCAT | 1.05 ± 0.055
157 | TACGTTTAAT | 1.04 ± 0.031
158 | TACTACACAC | 1.406 ± 0.013
159 | TACTACGTAA | 2.27 ± 0.4
160 | TACTACTATT | 1.03 ± 0.016
161 | TACTACTTGC | 1.05 ± 0.0085
162 | TACTAGAGCG | 1.03 ± 0.04
163 | TACTATGTTG | 1.02 ± 0.065
164 | TACTATTGGA | 1.01 ± 0.021
165 | TACTATTTTC | 0.984 ± 0.042
166 | TACTCACGAA | 1.42 ± 0.027
167 | TACTCATGAA | 1.038 ± 0.0037
168 | TACTCGTCTA | 1.02 ± 0.018
169 | TACTCTCGGT | 1.035 ± 0.0057
170 | TACTCTTTGT | 1.015 ± 0.002
171 | TACTGAATGG | 0.997 ± 0.0051
172 | TACTGCAATT | 1.35 ± 0.22
173 | TACTGCGGTC | 0.998 ± 0.012
174 | TACTGGAAGG | 0.941 ± 0.019
175 | TACTGGACTT | 1.14 ± 0.033

Row | Sequence | switch fluorescence ratio
176 | TACTGGATGA | 0.991 ± 0.029
177 | TACTGGCTAA | 1 ± 0.038
178 | TACTGGGGAC | 1.03 ± 0.035
179 | TACTGGGGGA | 1.07 ± 0.03
180 | TACTGGGTCG | 1.01 ± 0.043
181 | TACTGTACTC | 1.54 ± 0.035
182 | TACTTAAAAC | 1.011 ± 0.0078
183 | TACTTACTAG | 1.099 ± 0.01
184 | TACTTAGGTT | 0.98 ± 0.024
185 | TACTTAGTGC | 1.02 ± 0.045
186 | TACTTGAGCG | 1.02 ± 0.02
187 | TACTTGCTTC | 1.02 ± 0.038
188 | TACTTGGAAC | 1.04 ± 0.012
189 | TACTTTATTA | 1.019 ± 0.0035
190 | TAGAAACGCG | 0.983 ± 0.025
191 | TAGAAATGAT | 0.987 ± 0.033
192 | TAGAAATTGG | 1.03 ± 0.03
193 | TAGAACGTCG | 0.98 ± 0.031
194 | TAGAAGACAG | 0.996 ± 0.025
195 | TAGAAGCCGG | 0.98897 ± 0.00029
196 | TAGAAGGGCC | 0.976 ± 0.02
197 | TAGAAGGTGG | 1.04 ± 0.073
198 | TAGAATCAGG | 1.055 ± 0.0011
199 | TAGAATCCG | 1.003 ± 0.009
200 | TAGAATTATC | 1.017 ± 0.0056

From the supplement of paper PMC10126150
